# Test results from paper PMC9343967 (Nature, 2021).
# T1: LTK_(TG–EGFL) (human LTK residues 63–420) (human, UniProt P29376 63-420)
# T1 sequence (looked up): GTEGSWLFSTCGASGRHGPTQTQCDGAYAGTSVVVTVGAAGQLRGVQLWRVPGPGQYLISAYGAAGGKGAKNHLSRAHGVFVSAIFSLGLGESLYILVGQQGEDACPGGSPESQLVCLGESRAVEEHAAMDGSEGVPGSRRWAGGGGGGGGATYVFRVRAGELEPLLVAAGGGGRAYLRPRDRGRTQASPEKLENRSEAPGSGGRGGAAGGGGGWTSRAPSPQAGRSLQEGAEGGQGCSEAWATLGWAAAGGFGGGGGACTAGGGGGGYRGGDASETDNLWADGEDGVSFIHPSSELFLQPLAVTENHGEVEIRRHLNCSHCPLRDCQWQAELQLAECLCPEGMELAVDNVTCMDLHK
# B1: ALKAL2 (residues 78–152, conserved C-terminal domain) (ligand, human, UniProt Q6UX46 78-152, looked up)
# chain: PSPEQRVEIVPRDLRMKDKFLKHLTGPLYFSPKCSKHFHRLYHNTRDCTIPAYYKRCARLLTRLAVSPVCMEDKQ
# B2: ALK_(TG–EGFL) (human ALK residues 648–1038) (domain or fragment, UniProt Q9UM73 648-1038, looked up)
# chain: TAPKSRNLFERNPNKELKPGENSPRQTPIFDPTVHWLFTTCGASGPHGPTQAQCNNAYQNSNLSVEVGSEGPLKGIQIWKVPATDTYSISGYGAAGGKGGKNTMMRSHGVSVLGIFNLEKDDMLYILVGQQGEDACPSTNQLIQKVCIGENNVIEEEIRVNRSVHEWAGGGGGGGGATYVFKMKDGVPVPLIIAAGGGGRAYGAKTDTFHPERLENNSSVLGLNGNSGAAGGGGGWNDNTSLLWAGKSLQEGATGGHSCPQAMKKWGWETRGGFGGGGGGCSSGGGGGGYIGGNAASNNDPEMDGEDGVSFISPLGILYTPALKVMEGHGEVNIKHYLNCSHCEVDECHMDPESHKVICFCDHGTVLAEDGVSCIVSPTPEPHLPLSLILS
# B3: ALKAL1 (residues 57–129, conserved C-terminal domain) (ligand, human, UniProt Q6UXT8 57-129, looked up)
# chain: PSGSRSAEIFPRDSNLKDKFIKHFTGPVTFSPECSKHFHRLYYNTRECSTPAYYKRCARLLTRLAVSPLCSQT
# Key:
# [1] = target: B2; assay: ITC
# [2] = target: full-length ALK ectodomain (ALKFL, residues 19–1038) (human, UniProt Q9UM73 19-1038); assay: ITC
# [3] = target: T1, LTK_(TG–EGFL) (human LTK residues …); assay: ITC
# [4] = target: B2; assay: SEC-MALS
# [5] = target: T1, LTK_(TG–EGFL) (human LTK residues …); assay: SEC-MALS
# [6] = target: B3; assay: SEC-MALS
# [7] = target: B3; assay: ITC
# [8] = target: B1; assay: ITC
Kd [1],Kd [3],stoichiometry N [4],stoichiometry N [5],Binder,also measured
40 nM,55 nM,1 receptor per cytokine,2 receptors per cytokine,B1,stoichiometry N [2]: 1 receptor per cytokine
,,1 receptor per cytokine,,"purified ALKAL2^F97E (used in Ba/F3 and SEC-MALLS assays) (ligand, human, UniProt Q6UX46 78-152, looked up) PSPEQRVEIVPRDLRMKDKELKHLTGPLYFSPKCSKHFHRLYHNTRDCTIPAYYKRCARLLTRLAVSPVCMEDKQ",
,,,,B2,stoichiometry N [6]: 1 receptor per cytokine
,,,,"ALKTG (human ALK residues 648–985) (domain or fragment, UniProt Q9UM73 648-985, looked up) TAPKSRNLFERNPNKELKPGENSPRQTPIFDPTVHWLFTTCGASGPHGPTQAQCNNAYQNSNLSVEVGSEGPLKGIQIWKVPATDTYSISGYGAAGGKGGKNTMMRSHGVSVLGIFNLEKDDMLYILVGQQGEDACPSTNQLIQKVCIGENNVIEEEIRVNRSVHEWAGGGGGGGGATYVFKMKDGVPVPLIIAAGGGGRAYGAKTDTFHPERLENNSSVLGLNGNSGAAGGGGGWNDNTSLLWAGKSLQEGATGGHSCPQAMKKWGWETRGGFGGGGGGCSSGGGGGGYIGGNAASNNDPEMDGEDGVSFISPLGILYTPALKVMEGHGEVNIKHYL",fold reduction of affinity on removal of EGFL (against ALK_(TG–EGFL)) [7]: 4 fold; fold reduction of affinity on removal of EGFL (against ALK_(TG–EGFL)) [8]: 30 fold
600 nM,10 nM,,2 receptors per cytokine,B3,
,,,1 receptor per cytokine,"purified ALKAL1^F76E (used in Ba/F3 and SEC-MALLS assays) (ligand, human, UniProt Q6UXT8 57-129, looked up) PSGSRSAEIFPRDSNLKDKEIKHFTGPVTFSPECSKHFHRLYYNTRECSTPAYYKRCARLLTRLAVSPLCSQT",
